The values below come from paper PMC9482650, “Quantitative fragmentomics allow affinity mapping of interactomes” (Nature Communications, 2022).

Targets include MAGI1_4, Q96QZ7; SCRIB_4, Q14160; DLG5_2, Q8TDM6; IL16_2, Q14005; NHERF2_1, Q15599; CARD14, Q9BXL6; CNKSR3, Q6P9H4; DVL2, O14641.
Common to all, as to assay: holdup assay
What all share (design): key: below the threshold = too weak to quantify, mostly under pKd 3.1 to 4
Details in all cases: plain residues with an end cap or a label only (N-terminal biotin on a linker: ttds)

The target in a further experiment is T1, SHANK2, Q9UPX8.
T1 sequence (Q9UPX8 621-730, limits assumed, looked up): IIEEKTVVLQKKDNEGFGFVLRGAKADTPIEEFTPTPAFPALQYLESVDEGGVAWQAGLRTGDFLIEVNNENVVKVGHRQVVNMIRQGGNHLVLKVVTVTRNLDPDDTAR

Another experiment concerns the target T2, PDZRN3_2, Q9UPQ7.
T2 sequence (Q9UPQ7 414-513, limits assumed, looked up): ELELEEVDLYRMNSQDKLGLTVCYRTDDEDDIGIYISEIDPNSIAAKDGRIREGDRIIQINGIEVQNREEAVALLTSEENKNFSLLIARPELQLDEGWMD

A further experiment concerns the target T3, MPDZ_3, O75970.
T3 sequence (O75970 372-473, limits assumed, looked up): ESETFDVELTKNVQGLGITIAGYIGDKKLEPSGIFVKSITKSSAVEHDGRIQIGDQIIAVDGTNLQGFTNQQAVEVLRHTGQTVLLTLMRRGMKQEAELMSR

A further experiment deals with T4, TJP3_2, O95049.
T4 sequence (O95049 190-282, limits assumed, looked up): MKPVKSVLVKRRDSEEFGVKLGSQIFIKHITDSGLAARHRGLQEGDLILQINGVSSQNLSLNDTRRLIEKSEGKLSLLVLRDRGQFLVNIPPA

The next experiment deals with T5, PTPN13_5, Q12923.
T5 sequence (Q12923 1877-1975, limits assumed, looked up): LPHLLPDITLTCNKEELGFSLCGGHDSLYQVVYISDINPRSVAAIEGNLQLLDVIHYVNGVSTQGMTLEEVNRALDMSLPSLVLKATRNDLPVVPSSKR

For another experiment, the target named is T6, PDZD7_2, Q9H5P4.
T6 sequence (Q9H5P4 205-303, limits assumed, looked up): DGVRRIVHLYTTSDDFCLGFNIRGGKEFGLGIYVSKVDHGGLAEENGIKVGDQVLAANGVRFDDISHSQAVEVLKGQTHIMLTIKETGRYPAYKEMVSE

For the next experiment, the target named is T7, PARD6G, Q9BYG4.
T7 sequence (Q9BYG4 153-261, limits assumed, looked up): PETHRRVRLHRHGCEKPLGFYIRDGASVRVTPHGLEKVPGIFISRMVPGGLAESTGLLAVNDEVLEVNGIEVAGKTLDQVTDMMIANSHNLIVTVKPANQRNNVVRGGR

The target in another experiment is T8, PDZD2_1, O15018.
T8 sequence (O15018 80-192, limits assumed, looked up): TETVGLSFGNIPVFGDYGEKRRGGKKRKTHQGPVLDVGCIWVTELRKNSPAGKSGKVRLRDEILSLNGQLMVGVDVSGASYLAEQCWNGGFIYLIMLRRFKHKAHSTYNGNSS

The target of the next experiment is T9, NHERF1_1, O14745.
T9 sequence (O14745 9-104, limits assumed, looked up): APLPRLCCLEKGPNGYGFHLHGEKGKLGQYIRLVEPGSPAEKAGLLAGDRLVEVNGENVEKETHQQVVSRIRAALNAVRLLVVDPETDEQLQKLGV

The next experiment has as its target T10, MPDZ_11, O75970.
T10 sequence (O75970 1720-1817, limits assumed, looked up): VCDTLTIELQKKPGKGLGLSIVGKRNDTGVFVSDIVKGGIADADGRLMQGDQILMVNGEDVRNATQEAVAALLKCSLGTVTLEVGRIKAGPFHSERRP

In another experiment the target is T11, GIPC1, O14908.
T11 sequence (O14908 128-223, limits assumed, looked up): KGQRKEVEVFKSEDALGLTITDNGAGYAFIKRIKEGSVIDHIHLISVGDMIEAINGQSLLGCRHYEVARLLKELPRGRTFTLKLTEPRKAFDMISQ

Another experiment concerns the target T12, SYNPO2L, Q9H987.
T12 sequence (Q9H987 1-98, limits assumed, looked up): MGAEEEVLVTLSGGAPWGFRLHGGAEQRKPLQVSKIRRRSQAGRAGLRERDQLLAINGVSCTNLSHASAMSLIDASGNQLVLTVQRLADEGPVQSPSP

Another experiment concerns the target T13, MPP1, Q00013.
T13 sequence (Q00013 66-162, limits assumed, looked up): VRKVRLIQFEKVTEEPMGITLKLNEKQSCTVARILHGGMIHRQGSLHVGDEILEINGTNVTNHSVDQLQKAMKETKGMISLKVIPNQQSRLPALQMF

Another experiment deals with T14, USH1C_3, Q9Y6N9.
T14 sequence (Q9Y6N9 447-547, limits assumed, looked up): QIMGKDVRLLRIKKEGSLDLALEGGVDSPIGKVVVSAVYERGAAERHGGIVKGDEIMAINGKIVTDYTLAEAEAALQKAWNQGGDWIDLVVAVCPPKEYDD

Sequence of SCRIB_4, Q14160 (Q14160 1095-1204): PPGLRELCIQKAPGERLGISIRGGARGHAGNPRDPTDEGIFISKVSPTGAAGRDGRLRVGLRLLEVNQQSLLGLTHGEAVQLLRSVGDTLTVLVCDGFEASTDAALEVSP
Sequence of DVL2, O14641 (O14641 260-359): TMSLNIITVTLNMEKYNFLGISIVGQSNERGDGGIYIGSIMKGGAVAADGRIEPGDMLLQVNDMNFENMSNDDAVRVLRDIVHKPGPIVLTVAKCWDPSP
Sequence of IL16_2, Q14005 (Q14005 350-450): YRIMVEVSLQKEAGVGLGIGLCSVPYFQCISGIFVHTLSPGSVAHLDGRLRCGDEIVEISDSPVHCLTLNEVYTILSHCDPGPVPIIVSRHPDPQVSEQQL
Sequence of NHERF2_1, Q15599 (Q15599 9-91): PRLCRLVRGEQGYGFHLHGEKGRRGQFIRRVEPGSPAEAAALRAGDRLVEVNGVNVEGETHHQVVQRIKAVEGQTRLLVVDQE
Sequence of CNKSR3, Q6P9H4 (Q6P9H4 203-303): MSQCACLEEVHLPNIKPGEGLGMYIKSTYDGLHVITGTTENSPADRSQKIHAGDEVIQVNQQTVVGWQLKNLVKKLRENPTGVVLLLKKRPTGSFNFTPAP
Sequence of DLG5_2, Q8TDM6 (Q8TDM6 714-800): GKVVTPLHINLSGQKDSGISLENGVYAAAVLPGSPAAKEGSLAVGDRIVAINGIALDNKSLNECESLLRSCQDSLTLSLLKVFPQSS
Sequence of MAGI1_4, Q96QZ7 (Q96QZ7 other isoform, or with tags, fused parts or gaps): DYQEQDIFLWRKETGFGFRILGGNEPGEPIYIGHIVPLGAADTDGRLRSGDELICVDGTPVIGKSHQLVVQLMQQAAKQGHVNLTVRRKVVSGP
Sequence of CARD14, Q9BXL6 (Q9BXL6 558-663): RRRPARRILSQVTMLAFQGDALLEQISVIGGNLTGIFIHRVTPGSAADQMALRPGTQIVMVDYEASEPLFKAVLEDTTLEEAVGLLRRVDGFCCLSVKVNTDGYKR

In general, pKd refers to the Kd on a negative log10 scale, so that one unit is a factor of ten. As for IQREDQETAV [DGKZ, Q13574], the pKd entry was “below the threshold” with SHANK2, Q9UPX8; “below the threshold” with MAGI1_4, Q96QZ7; “below the threshold” with PDZRN3_2, Q9UPQ7; 4.4 with SCRIB_4, Q14160; “below the threshold” in the experiment with MPDZ_3, O75970; “below the threshold” with DLG5_2, Q8TDM6. The negative-log Kd (pKd) entry with IL16_2, Q14005 was “below the threshold”; in the experiment with NHERF2_1, Q15599, “below the threshold”; with CARD14, Q9BXL6, “below the threshold”; with TJP3_2, O95049, “below the threshold”; in the experiment with CNKSR3, Q6P9H4, “below the threshold”; in the experiment with PTPN13_5, Q12923, “below the threshold”. Further, the pKd entry is “below the threshold” with PDZD7_2, Q9H5P4; “below the threshold” in the experiment with PARD6G, Q9BYG4; “below the threshold” in the experiment with PDZD2_1, O15018; “below the threshold” in the experiment with NHERF1_1, O14745; 4.5 with DVL2, O14641; “below the threshold” in the experiment with MPDZ_11, O75970. Besides, the negative logarithm of the Kd (pKd) in the experiment with GIPC1, O14908 is 4.92; in the experiment with SYNPO2L, Q9H987, “below the threshold”; with MPP1, Q00013 it was “below the threshold”; in the experiment with USH1C_3, Q9Y6N9 it was “below the threshold”.
On to MERLRVETDV [ARHGEF16, Q5VV41], for which the pKd result in the experiment with SHANK2, Q9UPX8 is “below the threshold”; with MAGI1_4, Q96QZ7, “below the threshold”; in the experiment with PDZRN3_2, Q9UPQ7, “below the threshold”; with SCRIB_4, Q14160 it was “below the threshold”; with MPDZ_3, O75970 it was “below the threshold”; in the experiment with DLG5_2, Q8TDM6, “below the threshold”. Moreover, the pKd result with IL16_2, Q14005 was “below the threshold”; in the experiment with NHERF2_1, Q15599, “below the threshold”; with CARD14, Q9BXL6 it was “below the threshold”; with TJP3_2, O95049, “below the threshold”; with CNKSR3, Q6P9H4, “below the threshold”; with PTPN13_5, Q12923 it was “below the threshold”. Also, the pKd was 4.24 in the experiment with PDZD7_2, Q9H5P4; “below the threshold” with PARD6G, Q9BYG4; “below the threshold” with PDZD2_1, O15018; “below the threshold” with NHERF1_1, O14745; “below the threshold” with DVL2, O14641; “below the threshold” with MPDZ_11, O75970. Moreover, the pKd with GIPC1, O14908 is 4.71; in the experiment with SYNPO2L, Q9H987 it was “below the threshold”; in the experiment with MPP1, Q00013 it was 4.56; with USH1C_3, Q9Y6N9, “below the threshold”.
Take SEKHFRETEV [HTLV1-TAX1, P03409]: the pKd entry in the experiment with SHANK2, Q9UPX8 was “below the threshold”; in the experiment with MAGI1_4, Q96QZ7, 4.28; in the experiment with PDZRN3_2, Q9UPQ7, “below the threshold”; with SCRIB_4, Q14160 it was 4.43; with MPDZ_3, O75970, 3.92; with DLG5_2, Q8TDM6, 5.06. The pKd result in the experiment with IL16_2, Q14005 was “below the threshold”; with NHERF2_1, Q15599, 3.95; in the experiment with CARD14, Q9BXL6, “below the threshold”; with TJP3_2, O95049, “below the threshold”; with CNKSR3, Q6P9H4, “below the threshold”; in the experiment with PTPN13_5, Q12923 it was “below the threshold”. The pKd was 4.05 in the experiment with PDZD7_2, Q9H5P4; 3.93 with PARD6G, Q9BYG4; “below the threshold” with PDZD2_1, O15018; “below the threshold” with NHERF1_1, O14745; “below the threshold” with DVL2, O14641; 4.25 in the experiment with MPDZ_11, O75970. Moreover, the pKd with GIPC1, O14908 was 4.86; in the experiment with SYNPO2L, Q9H987 it was “below the threshold”; in the experiment with MPP1, Q00013 it was “below the threshold”; in the experiment with USH1C_3, Q9Y6N9, “below the threshold”.
With NYWPGKETQL [SLCO1C1, Q9NYB5], the pKd in the experiment with SHANK2, Q9UPX8 was 4.64; with MAGI1_4, Q96QZ7, “below the threshold”; with PDZRN3_2, Q9UPQ7, “below the threshold”; with SCRIB_4, Q14160, 4.83; with MPDZ_3, O75970, “below the threshold”; with DLG5_2, Q8TDM6, “below the threshold”. Besides, the negative-log Kd (pKd) result in the experiment with IL16_2, Q14005 is on record as “below the threshold”; with NHERF2_1, Q15599, “below the threshold”; with CARD14, Q9BXL6 it was “below the threshold”; with TJP3_2, O95049 it was “below the threshold”; with CNKSR3, Q6P9H4, “below the threshold”; with PTPN13_5, Q12923 it was “below the threshold”. For the same molecule, the pKd entry was “below the threshold” with PDZD7_2, Q9H5P4; “below the threshold” in the experiment with PARD6G, Q9BYG4; “below the threshold” with PDZD2_1, O15018; “below the threshold” in the experiment with NHERF1_1, O14745; “below the threshold” with DVL2, O14641; “below the threshold” with MPDZ_11, O75970. The negative logarithm of the Kd (pKd) result in the experiment with GIPC1, O14908 is “below the threshold”; in the experiment with SYNPO2L, Q9H987, “below the threshold”; with MPP1, Q00013, “below the threshold”; with USH1C_3, Q9Y6N9, “below the threshold”.
With HIVEALETDV [PBK, Q96KB5], the pKd result with SHANK2, Q9UPX8 is “below the threshold”; in the experiment with MAGI1_4, Q96QZ7 it was 4.34; in the experiment with PDZRN3_2, Q9UPQ7, “below the threshold”; with SCRIB_4, Q14160 it was “below the threshold”; with MPDZ_3, O75970 it was “below the threshold”; with DLG5_2, Q8TDM6, “below the threshold”. Further, the negative-log Kd (pKd) entry in the experiment with IL16_2, Q14005 is reported as “below the threshold”; with NHERF2_1, Q15599 it was “below the threshold”; in the experiment with CARD14, Q9BXL6, “below the threshold”; in the experiment with TJP3_2, O95049, “below the threshold”; with CNKSR3, Q6P9H4 it was “below the threshold”; with PTPN13_5, Q12923 it was “below the threshold”. The pKd entry is “below the threshold” with PDZD7_2, Q9H5P4; “below the threshold” with PARD6G, Q9BYG4; “below the threshold” with PDZD2_1, O15018; “below the threshold” in the experiment with NHERF1_1, O14745; 5.15 in the experiment with DVL2, O14641; “below the threshold” with MPDZ_11, O75970. Besides, the negative-log Kd (pKd) with GIPC1, O14908 was 5.37; with SYNPO2L, Q9H987, “below the threshold”; in the experiment with MPP1, Q00013, “below the threshold”; in the experiment with USH1C_3, Q9Y6N9, “below the threshold”.
